From the DeepSol protein solubility set

Experiment: soluble on expression in E. coli; label from the status in PepcDB or PDB records

| Sequence | soluble on expression in E. coli |
| --- | --- |
| MSLATTREEALHIHRENQGKLESKSKVPVRNARDLSLAYSPGVAEPCKEIFEDVETVYEYTMKGNMVAVVSNGTAVLGLGNIGPEASLPVMEGKAVLFKSFAGVDAFPICLRTTDVDQIVETVKLLEPTFGGVNLEDIAAPSCFEIEERLKKETNIPVFHDDQHGTAIVTLAGLINALKLTGKRMSEIKVVANGAGAAGIAIIKLMQRMGVRDIIMCDSKGAIYDGRPYGMNDMKAEVAKWTNRDKIDGGLGDVLKGADVFIGVSVAGALTKEMIENMNDDPIIFAMANPVPEIMPEEAKAAGAKVIGTGRSDFPNQVNNVLAFPGIFRGALDARATHINEEMKVAAVHAIADLVAEEDLDPDYVIPAPFDPRVAPAVAAAVAKTAMETGVARRKVDPAEVEAKTKKLAIIEEGHHHHHH | soluble |
| SPWSQDRVEHLYEQVAAENSVDLLKKGQFQGTPDGSSVVFIDDIKDSTLSNVFVAQMRPRDSVLPSVMFSSSGEVKELSDGRQVITMQEGTRYEGVPTRVEYMITKFDEYEGVIGQREVKQKGRDWEAYPTADLIGHPDPEAQAELQWR | not soluble |
| MEESIMSIKVDMSLDCKGLACPMPIVKTKKAIEGLAPGQVIEVKATDKGSTIDIKSWASKVGHQYIGTKHEGDVLVHYVRKANEHEVNEVVKYPHTITNAELQSILSHGEESIVLDVREAAEFAFGHIPSAISVPLGELDSAVLDETKRIYVICRTGNRSDVACHMLKEKGYANVKNVIPGMLEWKGNVEK | not soluble |
| MAVDGLVSEKIKELLKELGKTYKLVVLTADTYGTLEKEFNGLPITVDKIKNEIEKEKAAEKYSPYIGIGNGNNDCLMLEKSELGILIIGEEGASTNALLKSDIVINNIKDAINLLLNEKRIIATL | not soluble |
| MAHHHHHHMSELKIGFLGCGSMGECIMAGLLKAKALGPENTFICNRSASTNERLVSLYQVKSVSAVELAEKSDIIMLGVKPYGIVPVLETIKEKITPSKLVVSMAAGVPIATIENHCPPKTKVVRVMPNIPSYVGEGVTSISGNSAVTPDDEAVVMKLFSAIGKSYLVAESAIHGVVGVAGSSPAYVFMFMEALSDGAVRGGIPRAQSYEMAAQAVLGAAKMLQDSGKTPSALKDMVCSPGGTTIEAVRFLEKGGMRSSIIEAMIQCMEKSKEFERMYSE | soluble |
| MSLADRLTIGEFSRITHLSIRMLRRYHEQDLLVPAEVDPDTGYRYYSPAQIRPALTVRRFRDLDLPLADLRRFLAAESADGPDDGTAQQVVAAHLRRLEDRLGRTQRAVEVLRELLDPEAEREGHHHHHH | not soluble |
| FLPTSREEMDQLGWDSCDVIIVTGDAYVDHPSFGMAIIGRLLEAQGFRVGIIAQPEWQTKDAFMTLGKPNLFFGVTAGNMDSMINRYTADKKIRHDDAYTPNNKGGMRPDRCSLVYSQRCREAYKDVPIVLGGIEASLRRVAHYDYWSDKVRRSILLDAKADILLFGNAERALVEVAHRLANGESINKMVDIRGTAVNLAQVPEHFKIIDSTRIDQPNKPFVPSNPYEVETQCATKGDEKEEAQPITIRPSRHDAKTTAVRLPSFEKLVNDRILYAHASRVLHLETNPYSGRALVQRHGDRELWVNQAPIPLTTEEMDFVFGLYYARVPHPKYGDAKIPAYDMIKTSVNIMRGCF | not soluble |
| MTKSILLVGVGGQGTILASKLLTMGLMEAGYDVKMSEIHGMSQRGGSVSSQVRYGDCVHSPVIEIGGADILVSFEKMEALRWFNYLKPEGKALVNNHRIDSMTVLIGGAEYQESDIDAELSRLNAKVINAADKAEELGNSKIMNVILLGCLVKSMQLESIDWEKIISENVKPKFVELNIKAFHEGMEMVSK | not soluble |
| MSLSNQEPIANYKFNYKTTANKVMKNINLSGKTIIITGGYSGIGLEMTKQLSRAGAKIIIPARRMEVAKKNLSKIKNIDILPLDLTNPESIHQFAESFLQNNSKLDILINSAGLMYLPLKRDSRGIEYHFATNHLGHYQLTLELLPALKNAKISRVINLSSRAQQMTPLLEDWNFEKIENYNPQIGYQQSKTANVLFSIKLDELGKKYGIRSFAVHPGMIPMTNIGRQNSPITPWLRYLADYFKLIHIPVFFNALKSGFDRSKYRYLKTIAQGAATPLWASTSPDLEGKGGLYCEDLNIARLMTSEEANNFSGGLRPHAIDHNDADRLWQISKNITGLDEGHHHHHH | not soluble |
| MPVDKNLRDLEPGIHTDLEGRLTYGGYLRLDQLLSAQQPLSEPAHHDEMLFIIQAQTSELWLKLLAHELRAAIVHLQRDEVWQCRKVLARSKQVLRQLTEQWSVLETLTPSEYMGFRDVLGPSSGFQSLQYRYIEFLLGNKNPQMLQVFAYDPAGQARLREVLEAPSLYEEFLRYLARFGHAIPQQYQARDWTAAHVADDTLRPVFERIYENTDRYWREYSLCEDLVDVETQFQLWRFRHMRTVMRVIGFKRGTGGSSGVGFLQQALALTFFPELFDVRTSVGVDNRPPQGSADAGKRLEHHHHHH | soluble |
| SDKVINPQVAWAQRSSTTDPERNYVLITVSIADCDAPELTIKPSYIELKAQSKPHVGDENVHHYQLHIDLYKEIIPEKTMHKVANGQHYFLKLYKKDLESEYWPRLTKEKVKYPYIKTDFDKWVDADEQDEVEA | soluble |
| MNKQRLITELQSKGLRLVDPNAKDLGRKGGAGPSDHRAVTVDGTTVMVPIYTSTAAASPYSINLASMPPKTVLSKGDEEIAAIALPRQPKFYDLKTADGIPYSHIALLHSNNVLATTVQQTCIRYRDESTVCQFCAIEKSLDAGRTITRKLPEQLAEVTEAAVRLDGIEQVIMTTGTPNSGDRGAAYLTKCAAAIKARVNIPIQAQCEPPDDFIWFERMKAAGVDSLGMHLEAVDPDVRAKIMPGKAEVPVSYYYEAYEAAVKVFGWGQVSTYLLAGLGDSFETLVEASEKLVNMGVYPFVVPFVPISETPLANHPAPDSDFMFALYQRVGTIIKQSQISSVDMKAGCAKCGACSALSTFAKLEHHHHHH | not soluble |
| MGSDKIHHHHHHMEQLQKRKIYDTTASNASTGILNGKSSNVLNWDDVRFSWAYPLYKNMLANFWTPFEINMSHDAKQFPTLTETEQEAFKKIIGLLAFLDSVQTDYSMRAAEYLTDSSLAALMSVLSFQEVVHNQSYSYVLSSLVPKATQDEIFEYWKHDDVLKERNEFIIDGYEKFVDNPTPKTFLESIVYDVILEGLNFYSGFAFFYNLARNQKMVSTSTMINYINRDEQLHVYLFTNIFKELLVEFPELNTEETKTFVKTTLMKAADLEKDWFRYIIGDKIPGINPEDMETYISFIANKRAVQLGMEKPYPEIKHNPMKWIRAYEDVNSGKSDFFEQKSRQYAKVSADNGFDEL | not soluble |
| MEYFDMRKMSVNLWRNAAGETREICTFPPAKRDFYWRASIASIAANGEFSLFPGMERIVTLLEGGEMLLESADRFNHTLKPFQPFAFAADQVVKAKLTAGQMSMDFNIMTRLDVCKAKVRIAERTFTTFGSRGGVVFVINGAWQLGDKLLTTDQGACWFDGRHTLRLLQPQGKLLFSEINWLAGHSPDQVQ | soluble |
| MQAKIAASNTGELDALQQLGFSLVEGEVDLALPVNNASDSGAVVAQETDIPALRQLASAAFAQSRFRAPWYAPDASSRFYAQWIENAVRGTFDHQCLILRAASGDIRGYVSLRELNATDARIGLLAGRGAGAELMQTALNWAYARGKTTLRVATQMGNTAALKRYIQSGANVESTAYWLYR | not soluble |
| MSLNPAYFVLLVEELKTKYLVKDICQILQVPLSTYYRWKKKDFSQSSLEKKIGQLCKAYQFTYGYRKIAALMKQEEQVGINKVQRIMQKYQWQCQVKVKKKNRPGSAYYQTENHLNRNFQASQPLEKLTTDITYLYFGDCRLYLSSIMDLYNGEIVAYSIGEKQDTELVLDTLNQLSLPEGSLLHSDQGSVYTSYEYYQCCKKKNVIRSMSRKGTPADNAPIECFHSSLKCETFYHKTAYKYAKSIVIQIVKDYIKYYNEKRIQQKLGYQSPINFRKQAEGHHHHHH | not soluble |
| MGSDKIHHHHHHMRIALDPYMYRHLSLGAMVDKTAELGYDYIELSPREDFMPFYKYPRVDRARIREFRKALSDAGVKLSSLLPLYHWAAPDEDLRIAAVRNWKRAIEVAVEMDCDLMNTEFSGQSDHALVCENQFMKSMDELMPHFEREGIKLDIQAHPYDFCERNNESVDIIRGLDRDWINYLYAAPHTFFYDDGVGDIASMLRYAGDRLTHLIIADTYNHRASSNLRYIVNPPGVTATVHQHLDIGQGEVNWEAFFSTLRDIKFDGIATVAVFAWEERADESSRFMLERVKSELLR | not soluble |
| MIKMTQSRLHAAQNALAKLHEHRGNTFYPHFHLAPPAGWMNDPNGLIWFNDRYHAFYQHHPMSEHWGPMHWGHATSDDMIHWQHEPIALALGDDNDKDGCFSGSAVDDNGVLSLIYTGHVWLDGAGNDDAIREVQCLATSRDGIHFEKQGVILTPPEGIMHFRDPKVWREADTWWMVVGAKDPGNTGQILLYRGSSLREWAFDRVLAHADAGESYMWECPDFFSLGDQHYLMFSPQGMNAEGYSYRNRFQSGVIPGMWSPGRLFAQSGHFTELDNGHDFYAPQSFLAKDGRRIVIGWMDMWESPMPSKREGWAGCMTLARELSESNGKLLQRPVHEAESLRQQHQSVSPRRISNKYVLQENAQAVEIQLQWALKNSDAEHYGLQLGTGMRLYIDNQSERLILWRYYPHENLDGYRSIPLPQRDTLALRIFIDTSSVEVFINDGEAVMSSRIYPQPEERELSLYASHGVAVLQHGALWLLGLEHHHHHH | soluble |
| MAEAVLRVARRQLSQRGGSGAPILLRQMFEPVSCTFTYLLGDRESREAVLIDPVLETAPRDAQLIKELGLRLLYAVNTHCHADHITGSGLLRSLLPGCQSVISRLSGAQADLHIEDGDSIRFGRFALETRASPGHTPGCVTFVLNDHSMAFTGDALLIRGCGRTDFQQGCAKTLYHSVHEKIFTLPGDCLIYPAHDYHGFTVSTVEEERTLNPRLTLSCEEFVKIMGNLNLPKPQQIDFAVPANMRCGVQTPTALEHHHHHH | soluble |
| KVILYARVSSSTQKDELVNQVKYLEEQVKEYDLVITDIGSGLNMKRKGFLKLLRMILNNEVSRVVVAYPDRLVRVGFEILEEVCKAHNCEIVVLNQEDKEEELVEDLMSALVSFSGKLYGMRSHEYEKVKKCAEELKNWKI | soluble |
| LYLAGIGQYAALLEAGFARARSAEETVRLLVTSYIDWVVANPDWARFILHSRGRVEAGELGERLRADNQAHFARIHAALAGYRAEGLFREMPDDCFASVVIGPAHDLARQWLAGRTRVALADCRELLAQVAWDSVRAA | soluble |
| MGSDKIHHHHHHMQAEKLMQVKDAVLKLRQQLRAGQIYQSLPSRMATLIKQLPSTVTTTVTIPSDEEVLPLIATLHEQLKKGTLTAMSDDQIKLLMAHVGSLNPLVRDQGVYYLLNEALQQQVLTPEQLGDIFDQLIQDQMLFAHIDEPQNDAIYQRSFAILLLSVLLYADHAGLKFMTPARLDLVVEQMTVYILLEKDTRGFVGTTGWAHAYTHIGNILDELADESQLARADKLLLLAALIARYQKLTTPLIFGEPERLSTYLTLITNKHELYCDYLLTAMKDWHQQLMMHTRPASEAEWTQIFNRNRLLEALALHDDLPTAVVDYLDDELEFLG | not soluble |
| MAHHHHHHMDPYPPSRVEVTVDDSFGRLEGLAEEHSIIEETWRKLMKGLERKILHNGLKFRLHNVVQYDNGKCHLQLGITDYKSSMGVATNVDYFLRSTSDGGTDRRKYLARALGIECFTTTSDEKAVMFCRSSLVSEYPGYYCFPGGHPEPQDILCQLPLSGPATGNHNNIDHNHNSVQNSDLLNDRLRREEAVSQLSGVNPEVIVQHLFDSAVMEVADELGVERTACRNRGLLSIVENMKNMKPDACFWVEVNQTAAEVQARFDSRVGFDAFESVPHSLVVVHLDDIVDCEGAELFIKDCLGGKVTPPSVACWLHGMACYRSLRGTLGKAQTHSFA | not soluble |
